Data: patent US20080261201A1, “Methods and compounds to alter virus infection” (priority 2006, published 2008)
Where two headings read alike, the source gives them in different places.

Key:
AAV2 [1] = assay: AAV2 (AV2Luc) transduction of HeLa cells, luciferase activity; format: cell-based; details: for inhibition of AAV2 transduction: DPI 10 μM
Method: (§1) Recombinant type-2 adeno-associated viruses encoding luciferase (AV2Luc) or factor VIII (AV2FVIII) transgenes were used for infection of different cell types. HeLa and IB3 cells were cultured in DMEM supplemented with 10% fetal bovine serum (FBS) and antibiotics. Nox 1 and Nox2 knockout and wild-type (wt) littermate control mouse dermal fibroblasts were generated from newborn mice as described in Bosu et al. (2001) and below. For all infections, viruses were applied to cells in serum-free DMEM, and an equal volume of 20% FBS/DMEM was added at 2 hours post-infection.
(§2) In studies evaluating viral entry, cells were incubated with 1,000 particles/cell of AV2FVIII at 4° C. for 30 minutes prior to removing virus, washing cells, and shifting cells to 37° C. Cells were then incubated for the indicated times and postnuclear supernatants (PNS) were prepared for analysis of intracellular AAV2. Taqman PCR was used to quantify the abundance of viral genomes in different subcellular fractions following infection using primer sets and methods described in Ding et al. (2006). When proteasome inhibitors were added to induce AAV2 transduction, LLnL (Boston Biochem, Cambridge, Mass.) and/or doxorubicin (Calbiochem, San Diego, Calif.), were present in the medium at concentrations of 40 μM and 5 μM, respectively. Modulation of endosomal ROS was achieved by adding 1 mg/mL of purified bovine Cu/Zn superoxide dismutase (Cu/ZnSOD) (Oxis Research, Portland, Oreg.) and/or catalase (Sigma-Aldrich, St. Louis, Mo.) to the medium which was then applied to cells 20 minutes prior to viral infections unless indicated otherwise. SOD and/or catalase remained in the medium during infection unless otherwise indicated.

AAV2 [2] = details: Sanlioglu et al., 2004; 1999; cited from earlier work
AAV2 capsid PLA2 = AAV2 capsid PLA2 (Adeno-associated virus 2, UniProt P03135)
Chain of AAV2 capsid PLA2 (P03135 whole entry): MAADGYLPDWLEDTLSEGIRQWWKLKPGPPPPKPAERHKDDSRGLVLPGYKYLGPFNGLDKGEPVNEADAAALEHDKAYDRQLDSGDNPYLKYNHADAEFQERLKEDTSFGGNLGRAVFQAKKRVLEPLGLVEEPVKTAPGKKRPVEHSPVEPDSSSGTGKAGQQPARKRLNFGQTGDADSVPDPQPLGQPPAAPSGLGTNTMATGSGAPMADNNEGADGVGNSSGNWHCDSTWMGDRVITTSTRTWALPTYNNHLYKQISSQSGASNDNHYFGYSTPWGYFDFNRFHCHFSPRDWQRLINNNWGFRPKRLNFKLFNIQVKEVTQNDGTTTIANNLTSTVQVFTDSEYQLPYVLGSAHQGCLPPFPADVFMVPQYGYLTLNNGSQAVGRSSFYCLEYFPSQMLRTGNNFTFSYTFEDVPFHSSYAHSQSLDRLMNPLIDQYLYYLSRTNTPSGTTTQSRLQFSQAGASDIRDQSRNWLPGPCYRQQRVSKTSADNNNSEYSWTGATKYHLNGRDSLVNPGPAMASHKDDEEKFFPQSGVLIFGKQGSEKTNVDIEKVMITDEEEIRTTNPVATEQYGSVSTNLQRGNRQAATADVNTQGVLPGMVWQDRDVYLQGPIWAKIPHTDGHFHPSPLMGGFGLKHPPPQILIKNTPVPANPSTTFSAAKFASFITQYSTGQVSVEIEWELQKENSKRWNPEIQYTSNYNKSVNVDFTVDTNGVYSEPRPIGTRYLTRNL
Chain of AAV2 capsid PLA2 (P03135 1-598 isoform P03135-2 partner): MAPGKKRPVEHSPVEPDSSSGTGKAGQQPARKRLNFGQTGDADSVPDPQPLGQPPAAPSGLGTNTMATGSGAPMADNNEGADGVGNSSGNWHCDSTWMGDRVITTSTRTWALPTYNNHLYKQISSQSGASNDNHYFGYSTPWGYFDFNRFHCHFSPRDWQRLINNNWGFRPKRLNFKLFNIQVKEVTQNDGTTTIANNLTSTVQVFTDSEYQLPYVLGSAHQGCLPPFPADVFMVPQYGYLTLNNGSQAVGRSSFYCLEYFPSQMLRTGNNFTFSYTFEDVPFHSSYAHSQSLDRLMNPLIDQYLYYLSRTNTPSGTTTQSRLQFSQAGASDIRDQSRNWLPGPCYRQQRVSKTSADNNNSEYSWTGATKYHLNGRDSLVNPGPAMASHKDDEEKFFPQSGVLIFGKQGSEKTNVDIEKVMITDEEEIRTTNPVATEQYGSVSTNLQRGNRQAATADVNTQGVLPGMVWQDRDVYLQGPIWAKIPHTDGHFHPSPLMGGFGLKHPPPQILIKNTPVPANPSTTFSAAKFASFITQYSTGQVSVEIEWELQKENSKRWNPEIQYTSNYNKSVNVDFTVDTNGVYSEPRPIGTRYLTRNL
Chain of AAV2 capsid PLA2 (P03135 203-735 partner limits assumed): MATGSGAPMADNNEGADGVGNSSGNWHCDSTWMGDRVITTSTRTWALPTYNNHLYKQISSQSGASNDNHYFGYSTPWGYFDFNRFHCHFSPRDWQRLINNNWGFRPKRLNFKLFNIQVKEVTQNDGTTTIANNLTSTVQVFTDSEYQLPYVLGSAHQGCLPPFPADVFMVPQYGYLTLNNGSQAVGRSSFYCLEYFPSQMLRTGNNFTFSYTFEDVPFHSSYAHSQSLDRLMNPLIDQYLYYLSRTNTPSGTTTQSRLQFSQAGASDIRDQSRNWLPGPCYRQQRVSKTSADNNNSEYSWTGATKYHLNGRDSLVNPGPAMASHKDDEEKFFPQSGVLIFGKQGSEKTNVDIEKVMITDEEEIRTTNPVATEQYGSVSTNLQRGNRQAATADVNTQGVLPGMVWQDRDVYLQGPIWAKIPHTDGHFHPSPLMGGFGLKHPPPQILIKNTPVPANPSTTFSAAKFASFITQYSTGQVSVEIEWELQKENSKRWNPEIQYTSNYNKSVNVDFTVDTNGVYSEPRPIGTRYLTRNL
Method: 10^10 purified AV2FVIII virions were treated with various conditions to activate PLA2 activity in the capsid of purified virions. This included pre-incubation of virus with various concentration of H2O2 for 15 minutes at 37° C. or partial heat denaturation at 70° C. for 2 minutes. Catalase was added to virus treated with H2O2 at the end of the treatment period to scavenge H2O2 prior to the PLA2 activity assay. PLA2 activity of virions was determined by the release of radioactive fatty acid from L-3-phosphatidylcholine (PC), 1,2-di[1-^14C]oleoyl using the protocol described by Zadori et al. (2001).

AAV2 capsid [3] = molecular target: T1, AAV2 capsid (Adeno-associated virus 2, UniProt P03135); details: 100 nM H2O2
T1 sequence (P03135 whole entry): as the sequence (P03135 whole entry) above
T1 sequence (P03135 1-598 isoform P03135-2): as the sequence (P03135 1-598 isoform P03135-2 partner) above
T1 sequence (P03135 203-735): as the sequence (P03135 203-735 partner limits assumed) above
Method: Subtle changes in capsid structure of the virion following heat denaturation or exposure to H2O2 was assayed using MALDI-TOF mass spectrometry following trypsin digestion. Briefly, 10^10 AAV2 particles were treated with H2O2 (which was then removed by dialysis for 1 hour against 20 mM Tris, 20 mM NaCl, pH 8.0) or heated to 70° C. as described above and then incubated with 500 ng of porcine trypsin in 25 mM NH4HCO3 (pH 8.0) at 37° C. for 16 hours. The digested products were then sequentially incubated with 10 mM DTT and 55 mM of iodoacetamide to reduce and modify cysteine residues. 1/20 of the original sample was assayed on a Bruker Biflex III MALDI-TOF MS. For the analysis of cysteine modification, the theoretical m/z values of peptides containing individual cysteines were predicted without modification, with iodoacetamide modification, and with different oxidative (sulfenic, sulfinic, or sulfonic) modifications. Spectra were evaluated using ExPASy (http://us.expasy.org/tools/peptide-mass.html) and compared to the theoretical spectra for various VP proteins.

AAV2 capsid [4] = molecular target: T1, AAV2 capsid; details: following 100 nM H2O2 treatment; data not shown
AAV2 [5] = assay: AAV2 (AV2Luc) transduction of IB3 cells, luciferase activity; format: cell-based
Method: as §1
(§3) In studies evaluating the efficiency of viral transduction, AV2Luc virus was used at a multiplicity of infection (MOI) equal to 1,000 particles/cell, and luciferase activity was measured at 24 hours post-infection. In studies evaluating viral entry, cells were incubated with 1,000 particles/cell of AV2FVIII at 4° C. for 30 minutes prior to removing virus, washing cells, and shifting cells to 37° C. Cells were then incubated for the indicated times and postnuclear supernatants (PNS) were prepared for analysis of intracellular AAV2. Taqman PCR was used to quantify the abundance of viral genomes in different subcellular fractions following infection using primer sets and methods described in Ding et al. (2006). […]

AAV2 [6] = assay: AAV2 (AV2Luc) transduction of Nox1/Nox2 WT and KO primary mouse dermal fibroblasts (PMDF); format: cell-based; details: catalase 1 mg/ml
Method: as §1, §3

NADPH oxidase = molecular target: T2, NADPH oxidase (Homo sapiens, UniProt P04839); assay: NADPH-dependent superoxide production in endosomal (vesicular) fractions, lucigenin-based assay; format: biochemical; details: HeLa cells; 20 minutes following infection; catalase 1 mg/mL
T2 construct: endogenous in cells; host or cells: iodixanol-fractionated endosomal (vesicular) fractions of HeLa and IB3 cells after AAV2 infection
Method: Vesicular fractionation was performed using a previously described protocol (Li et al., 2006b) with minor modifications. Briefly, cells were harvested by scraping and washing twice in 4° C. phosphate-buffered saline (PBS). Cells were then pelleted and resuspended on ice in 1 mL of pre-cooled (4° C.) homogenization buffer (0.25 M sucrose, 10 mM triethanolamine, 1 mM EDTA, 1 mM PMSF, and 100 μg/mL aprotinin) and homogenized using a nitrogen decompression vessel (Parr Instrument, Moline, Ill.). Methods for generating PNS, iodixanol isolation of vesicular fractions, sample collection, quality control, and Nox activity assays were performed as described in Li et al. (2006b).
In brief, vesicular fractions were confirmed by Western blot to contain known endosomal Rab proteins and be devoid of markers for plasma membrane and mitochondria. Nox activities were analyzed by measuring the rate of .O2— generation using a chemiluminescent, lucigenin-based system. […] The reaction was initiated by the addition of 100 μM of NADPH (Sigma-Aldrich, St. Louis, Mo.) and changes in luminescence were measured over the course of 3 min (5 readings/sec). The slope of the luminescence curve (relative light units [RLU] per minute) (r>0.95) was used to calculate the rate of .O2^− formation as an index of NADPH oxidase activity.

AAV2 [7] = assay: Virion endosomal escape assay (30% iodixanol cushion) in HeLa cells; format: cell-based; details: 1 hour following infection, catalase loading
Method: A protocol using a 30% iodixanol cushion was developed to separate AAV2 virions in the cytoplasm from those inside endosomes. Briefly, HeLa cells were incubated with 1,000 particles/cell of AAV2 at 4° C. for 30 minutes before removing virus, washing cells, and shifting cells to 37° C. Cells were then incubated for the indicated times and PNS were prepared. A total volume of 500 μl PNS was then loaded on the top of 250 μl 30% iodixanol, followed by centrifugation at 100,000×g for 1 hour. Viral genome within the supernatant and pellet were quantified by real-time PCR.

AAV2 [8] = assay: Viral uptake/accumulation, viral genomes quantified by Taqman PCR, HeLa cells; format: cell-based
Method: as §2, with “In studies evaluating the efficiency of viral transduction, AV2Luc virus was used at a multiplicity of infection (MOI) equal to 1,000 particles/cell, and luciferase activity was measured at 24 hours post-infection. In” for “In”

[9] = HeLa cells, antimycin A 10 μM, L-NMMA 5 mM, rotenone 2 nM, 16 hours post-infection

C=C(C)[C@H]1Cc2c(ccc3c2O[C@@H]2COc4cc(OC)c(OC)cc4[C@@H]2C3=O)O1 [rotenone]
effect on AAV2 transduction (AAV2 [1]; [9]): did not significantly affect

CC(=O)N[C@@H](CS)C(=O)O [NAC, N-acetyl-L-cysteine]
effect on AAV2 transduction (AAV2 [2]): inhibit transduction

OO [H2O2, hydrogen peroxide]
PLA2 activity of H2O2-treated virions (AAV2 capsid PLA2): greater than that seen following partial virion heat denaturation | optimal concentration of H2O2 for PLA2 activation (AAV2 capsid PLA2): 100 nM | tryptic digestion of AAV2 virions after pre-treatment (AAV2 capsid [3]): significantly enhanced tryptic digestion | number of cysteines that form sulfonic acid in the capsid (AAV2 capsid [4]): < 5% | effect on AAV2 transduction (AAV2 [2]): increase AAV2 transduction

CC(=O)O.CNC(=N)NCCC[C@H](N)C(=O)O [L-NMMA, N^G-monomethyl-L-arginine acetate]
effect on AAV2 transduction (AAV2 [1]; [9]): did not significantly affect

c1ccc2c(c1)[I+]c1ccccc1-2 [DPI]
inhibition of AAV2 transduction (AAV2 [1]; HeLa cells, absence of proteasome inhibitors, 16 hours post-infection): 100 fold | inhibition of AAV2 transduction (AAV2 [1]; HeLa cells, presence of proteasome inhibitors, 16 hours post-infection): 1000 fold

antimycin A
effect on AAV2 transduction (AAV2 [1]; [9]): did not significantly affect

SOD1: purified bovine Cu/Zn superoxide dismutase (Oxis Research)
effect on AAV2 transduction (AAV2 [1]; endosomal loading with purified SOD1, absence or presence of proteasome inhibitors): failed to alter

B1: catalase: purified bovine catalase (Sigma-Aldrich) loaded into endosomes to clear H2O2 (protein, UniProt P00432 2-527, looked up)
Catalase: ADNRDPASDQMKHWKEQRAAQKPDVLTTGGGNPVGDKLNSLTVGPRGPLLVQDVVFTDEMAHFDRERIPERVVHAKGAGAFGYFEVTHDITRYSKAKVFEHIGKRTPIAVRFSTVAGESGSADTVRDPRGFAVKFYTEDGNWDLVGNNTPIFFIRDALLFPSFIHSQKRNPQTHLKDPDMVWDFWSLRPESLHQVSFLFSDRGIPDGHRHMNGYGSHTFKLVNANGEAVYCKFHYKTDQGIKNLSVEDAARLAHEDPDYGLRDLFNAIATGNYPSWTLYIQVMTFSEAEIFPFNPFDLTKVWPHGDYPLIPVGKLVLNRNPVNYFAEVEQLAFDPSNMPPGIEPSPDKMLQGRLFAYPDTHRHRLGPNYLQIPVNCPYRARVANYQRDGPMCMMDNQGGAPNYYPNSFSAPEHQPSALEHRTHFSGDVQRFNSANDDNVTQVRTFYLKVLNEEQRKRLCENIAGHLKDAQLFIQKKAVKNFSDVHPEYGSRIQALLDKYNEEKPKNAVHTYVQHGSHLSAREKANL
effect on ability of proteasome inhibitors to enhance AAV2 transduction (AAV2 [1]; HeLa cells, 40 μM LLnL and 5 μM doxorubicin): completely abolished | effect on AAV2 transduction (luciferase transgene expression) (AAV2 [1]; HeLa cells, 1 mg/mL catalase endosomal loading): significantly inhibited | ability of catalase loading to inhibit viral transduction (AAV2 [1]; catalase added by 30 minutes post-infection): significantly declined | ability of catalase loading to inhibit viral transduction (AAV2 [1]; catalase added by 60 minutes post-infection): completely absent | decrease of rAAV2 transduction by catalase loading (AAV2 [1]; endosomal catalase loading, cell type not stated in b12): about 80 fold | effect on ability of proteasome inhibitors to enhance AAV2 transduction (AAV2 [5]; 40 μM LLnL and 5 μM doxorubicin): completely abolished | effect on AAV2 transduction (luciferase transgene expression) (AAV2 [5]; 1 mg/mL catalase endosomal loading): significantly inhibited | effect on AAV2 transduction (AAV2 [6]; Nox1+/+ and Nox1-/- PMDFs, baseline and proteasome inhibitor induced): inhibited transduction | effect on AAV2 transduction (AAV2 [6]; Nox2-/- PMDFs): did not significantly alter | effect on Nox activity in the endosomal compartment (NADPH oxidase): did not affect | inhibition of viral escape from endosomes (AAV2 [7]): about 3 fold | effect on viral uptake (AAV2 [8]; 1 mg/mL catalase): not due to impaired viral uptake | effect on viral accumulation in the endosomal compartment (AAV2 [8]; 20 minutes following infection, catalase 1 mg/mL): did not affect
